How the values were obtained:
Assay in all cases: gel electrophoresis; eluent of Ni-charged magnetic beads (0.5 M NaCl, 20 mM HEPES, 500 mM imidazole, 0.5% Genapol X-80, pH 8.0) after heating the lysate at 90 °C for 10 min; 4–20% Mini-PROTEAN TGX Gel, 200 V for 27 min; self-assembly, octamer band
[1] = biological target: M2 MspA (Mycobacterium smegmatis porin A mutant M2) (Mycobacterium smegmatis) (UniProt A0QR29)
[2] = biological target: MspA-C (M2 MspA with cysteine at site 91) (Mycobacterium smegmatis)
[3] = biological target: MspA-D (M2 MspA with aspartic acid at site 91) (Mycobacterium smegmatis)
[4] = biological target: MspA-H (M2 MspA with histidine at site 91) (Mycobacterium smegmatis)
[5] = biological target: MspA-M (M2 MspA with methionine at site 91) (Mycobacterium smegmatis)

Substance: M2 MspA (Mycobacterium smegmatis porin A mutant M2) (from UniProt A0QR29 28-211) (natural protein)
- stoichiometry N [1]: 8

Substance: MspA-C (M2 MspA with cysteine at site 91) (natural protein)
- stoichiometry N [2]: 8

Substance: MspA-D (M2 MspA with aspartic acid at site 91) (natural protein)
- stoichiometry N [3]: 8

Substance: MspA-H (M2 MspA with histidine at site 91) (natural protein)
- stoichiometry N [4]: 8

Substance: MspA-M (M2 MspA with methionine at site 91) (natural protein)
- stoichiometry N [5]: 8

Reference: publication PMC8278974
